We go through four molecules from US20230192817A1 (ZHUHAI TRINOMAB PHARMACEUTICAL, published 2023).

Test [1] concerns the target T1, VZV gH/gL protein complex (CAMBRIDGEBIO, Cat No: 01-11-0045) (Varicella-Zoster Virus, UniProt P09260 18-802; P09308 22-159).
T1 construct: also called gHgL-Cambridge
T1 sequence 1: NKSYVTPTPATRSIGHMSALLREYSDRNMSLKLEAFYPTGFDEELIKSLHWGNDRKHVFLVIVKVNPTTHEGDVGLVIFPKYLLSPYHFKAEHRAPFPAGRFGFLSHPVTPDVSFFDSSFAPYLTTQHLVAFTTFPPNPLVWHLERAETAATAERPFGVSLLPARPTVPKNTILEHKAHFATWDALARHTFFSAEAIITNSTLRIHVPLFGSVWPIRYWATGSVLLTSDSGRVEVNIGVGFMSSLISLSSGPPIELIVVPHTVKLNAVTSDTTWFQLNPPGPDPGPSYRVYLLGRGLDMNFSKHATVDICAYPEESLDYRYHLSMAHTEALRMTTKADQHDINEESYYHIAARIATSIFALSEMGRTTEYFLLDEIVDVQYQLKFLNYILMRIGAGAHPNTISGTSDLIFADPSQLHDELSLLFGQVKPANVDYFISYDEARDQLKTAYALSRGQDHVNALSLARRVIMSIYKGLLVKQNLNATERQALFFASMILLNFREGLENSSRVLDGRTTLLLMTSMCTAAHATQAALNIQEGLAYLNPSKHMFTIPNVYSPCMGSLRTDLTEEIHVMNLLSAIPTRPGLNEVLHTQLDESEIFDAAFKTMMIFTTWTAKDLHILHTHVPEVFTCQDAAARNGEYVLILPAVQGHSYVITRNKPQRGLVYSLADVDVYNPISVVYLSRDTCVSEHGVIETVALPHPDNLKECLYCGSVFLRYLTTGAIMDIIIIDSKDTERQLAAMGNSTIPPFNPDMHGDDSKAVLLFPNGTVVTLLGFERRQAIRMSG
T1 sequence 2: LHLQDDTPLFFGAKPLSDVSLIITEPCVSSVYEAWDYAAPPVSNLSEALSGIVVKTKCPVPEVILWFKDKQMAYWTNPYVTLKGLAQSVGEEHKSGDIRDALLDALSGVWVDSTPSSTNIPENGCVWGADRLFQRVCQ
Put plainly: SPR (Biacore), antibody captured on anti-human IgG (Fc) CM5 chip, gH/gL complex as analyte. On the technique in general: Surface plasmon resonance follows binding to a sensor surface in real time, without labels.

Test [2] addresses T1, VZV gH/gL protein complex …. The experiment in a line: ELISA, culture supernatant. A general note: ELISA stands for enzyme-linked immunosorbent assay.
For test [3] the target is unchanged. The experiment in a line: ELISA, plate coated with 100 ng/well VZV gH/gL complex, detection Goat-Anti-IgG-Fab-HRP.

B1: fully human VZV monoclonal antibody TRN1026 (antibody, V domains shown)
VH: QVQLVQSGAEVKKPGSSVKVSCKASGRTFSSYAYSWVRQAPGQGLEWMGRVIPVLGITNYAPKFQGKVTITVDKVTSTAFLELTGLKSDDTAVYYCARVSDDVLTGALDYWGQGTLVTVSS
VL: QSVLTQPPSVSGSPGQSVTISCTGTRSDVGSHNRVAWFQQSPGTAPKLMIYEVTNRPSGVPDRFSGSKSGNTASLTISGLQAEDEADYYCSSYTSTSTWVFGGGTKLTVL
What is called Kd is the equilibrium constant for the complex coming apart. The term koff denotes the rate constant with which the complex falls apart. High values mean a short-lived complex, low ones a long-lived complex. For orientation: kon means a measure of how fast the partners come together. A low value points to slower complex formation. In the case of B1, in test [1], the Kd is 2.66 nM, the koff stood at 0.000274 s⁻¹ and the kon worked out at 103000 M⁻¹ s⁻¹.

B2: antibody variant derived from antibody TRN1026 (antibody, V domains shown)
VH: QVQLVQSGAEVKKPGSSVKVSCKASGRTFSSYAYSWVRQAPGQGLEWMGRVIPVLGITNYAPKFQDKVTITADKVTSTAFLELTGLKSDDTAVYYCARVSDDVLTGALDYWGQGTLVTVSS
VL: QSVLTQPPSVSGSPGQSVTISFTGTRSDVGSHNRVAWFQQSPGTAPKLMIYEVTNRPSGVPDRFSGSKSGNTASLTISGLQAEDEADYYCSSYTSTSTWVFGGGTKLTVL
notes: also called Antibody derived from TRN1026
As a reminder, the EC50 is the concentration at which the effect is half-maximal. A higher EC50 goes with a need for much substance. B2: the EC50 in test [2] was 0.05 µg/mL.

B3: fully human VZV monoclonal antibody TRN1025 (antibody, V domains shown)
VH: QVQLVQSGGGLVQPGGSLRLSCVASGFTFSSYAMTWVRQAPGKGLEWVSTISGSGGSTFYADSVRGRFTISRDNSKNALYLQMNSLRAEDTAVYYCAKDRSYGGNQPFDYWGQGTLVTVSS
VL: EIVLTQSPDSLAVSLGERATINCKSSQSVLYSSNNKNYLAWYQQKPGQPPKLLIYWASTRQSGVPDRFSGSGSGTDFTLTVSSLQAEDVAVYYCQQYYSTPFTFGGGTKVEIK
In general, EC50 (read off the curve) refers to the midpoint of the concentration-response curve. A lower EC50 (read off the curve) goes with higher potency in that assay. In test [1], B3 yielded an equilibrium dissociation constant (Kd) of 13.4 nM, a koff of 0.000416 s⁻¹ and a kon of 31100 M⁻¹ s⁻¹. In test [3], the “EC50 (read off the curve)” value is approximately 0.5 µg/mL.

B4: fully human VZV monoclonal antibody TRN1024 (antibody, V domains shown)
VH: QVQLVQSGGGLVQPGGSLRLSCEASGFTFSSYWMSWVRQAPGKGLEWVANIKQDGSEKYYVDSVKGRFSISRDNAKNSLYLQMNSLRVEDTAVYYCAREGGGQGKWRLEYGMDVWGQGTTVIVSS
VL: not shown
B4: in test [1], the Kd was determined as 36.7 nM, the koff was determined as 0.000621 s⁻¹ and the on-rate (kon) was 16900 M⁻¹ s⁻¹. Also, the “EC50 (read off the curve)” value in test [3] is approximately 0.6 µg/mL.
